Assay results reported in US20150218594A1, “CELL-FREE AND MINIMIZED METABOLIC REACTION CASCADES FOR THE PRODUCTION OF CHEMICALS” (CLARIANT PRODUKTE (DEUTSCHLAND) GMBH, priority 2012, published 2015).
Read-outs that look alike come from different tables or passages of the source.

Assays:
[1] = ALS activity (pyruvate consumption); format: biochemical; settings: natural substrate
Description: (§1) (J. Mol. Catal. B-Enzym. 2009, 61, 30-35).
ALS activity: ALS activity was determined by following pyruvate consumption at 50° C. Reaction mixtures contained 25 mM HEPES (pH 7), 0.1 mM thiamine-pyrophosphate, 2.5 mM MgCl2, 15 mM sodium pyruvate. Pyruvate concentration in the samples was determined via lactate dehydrogenase as described elsewhere. (Biochem. J. 2007, 403, 421-430)

[2] = Isobutanol tolerance of enzymes (I50); format: biochemical
[3] = Table 2, value with literature reference; cited from earlier work
[4] = Enzyme half-life at 50° C.
[5] = KARI activity (NADH consumption, acetolactate to 2,3-dihydroxy isovalerate); format: biochemical; settings: natural substrate
Description: as §1
KARL activity: KARI activity was assayed by following the NADH consumption connected to the conversion of acetolactate to 2,3-dihydroxy isovalerate at 50° C. Assay mixture contained 5 mM acetolactate, 0.3 mM NADH, 10 mM MgCl2 and 50 mM HEPES, pH 7.

[6] = Enzyme temperature optimum; format: biochemical
[7] = GDH activity assay (oxidation of D-glucose to gluconate, NAD reduction); format: biochemical; settings: natural substrate
Description: as §1
GDH activity: GDH activity was assayed at 50° C. by oxidizing D-glucose to gluconate, whereby the coenzyme NAD is reduced to NADH. Assay mixture contained 50 mM HEPES (pH 7), 2 mM NAD and 50 mM D-glucose. (J. Biol. Chem. 2006, 281, 14796-14804)

[8] = Ethanol tolerance of enzymes (E50); format: biochemical; settings: 45° C.
[9] = KDC activity (decarboxylation of 2-ketoisovalerate); format: biochemical; settings: natural substrate
Description: as §1
KDC activity: KDC activity was assayed by following the decarboxylation of 2-ketoisovalerate to isobutyraldehyde at 50° C. and 340 nm. Assay mixture contained 50 mM HEPES (pH 7), 0.1 mM thiamine-pyrophosphate, 2.5 mM MgCl2 and 60 mM 2-ketoisovalerate. Decarboxylation rate was calculated using the molar extinction coefficient of 2-ketoisovalerate (s=0.017 L mmol-1 cm-1). (J. Mol. Catal. B-Enzym. 2009, 61, 30-35)

Molecule	T-Optimum ([6]; Table 2)	T-Optimum ([6]; Table 1)	Activity, 50° C. [1]	I50: Isobutanol concentration which causes loss of 50% activity ([2]; 50° C.)	T-Optimum [3]	Half-life, 50° C. [4]	Activity, 50° C. [5]	I50: Isobutanol concentration which causes loss of 50% activity ([2]; 40° C.)	Activity, 50° C. [7]	E50: Ethanol concentration which causes loss of 50% activity [8]	I50: Isobutanol concentration which causes loss of 50% activity ([2]; 45° C.)	Activity, 50° C. [9]
ALS: Acetolactate synthase ALS (EC 2.2.1.6), Bacillus subtilis, Seq ID 12 (protein, listed as Bacillus subtilis) MLTKATKEQKSLVKNRGAELVVDCLVEQGVTHVFGIPGAKIDAVFDALQDKGPEIIVARHEQNAAFMAQAVGRLTGKPGVVLVTSGPGASNLATGLLTANTEGDPVVALAGNVIRADRLKRTHQSLDNAALFQPITKYSVEVQDVKNIPEAVTNAFRIASAGQAGAAFVSFPQDVVNEVTNTKNVRAVAAPKLGPAADDAISAAIAKIQTAKLPVVLVGMKGGRPEAIKAVRKLLKKVQLPFVETYQAAGTLSRDLEDQYFGRIGLFRNQPGDLLLEQADVVLTIGYDPIEYDPKFWNINGDRTIIHLDEIIADIDHAYQPDLELIGDIPSTINHIEHDAVKVEFAEREQKILSDLKQYMHEGEQVPADWKSDRAHPLEIVKELRNAVDDHVTVTCDIGSHAIWMSRYFRSYEPLTLMISNGMQTLGVALPWAIGASLVKPGEKVVSVSGDGGFLFSAMELETAVRLKAPIVHIVWNDSTYDMVAFQQLKKYNRTSAVDFGNIDIVKYAESFGATGLRVESPDQLADVLRQGMNAEGPVIIDVPVDYSDNINLASDKLPKEFGELMKTKALL			30 U/mg	4 (50° C.) % v/v	37^[4] ° C.	12 h						
KDC: Branched-chain-2-oxo acid decarboxylase KDC (EC 4.1.1.72), Lactococcus lactis, Seq ID 16 (protein, Branched-chain ketoacid decarboxylase (EC 4.1.1.72), Lactococcus lactis Protein sequence including N-terminal His-Tag) MGSSHHHHHHSSGLVPRGSHMASMYTVGDYLLDRLHELGIEEIFGVPGDYNLQFLDQIISREDMKWIGNANELNASYMADGYARTKKAAAFLTTFGVGELSAINGLAGSYAENLPVVEIVGSPTSKVQNDGKFVHHTLADGDFKHFMKMHEPVTAARTLLTAENATYEIDRVLSQLLKERKPVYINLPVDVAAAKAEKPALSLEKESSTTNTTEQVILSKIEESLKNAQKPVVIAGHEVISFGLEKTVTQFVSETKLPITTLNFGKSAVDESLPSFLGIYNGKLSEISLKNFVESADFILMLGVKLTDSSTGAFTHHLDENKMISLNIDEGIIFNKVVEDFDFRAVVSSLSELKGIEYEGQYIDKQYEEFIPSSAPLSQDRLWQAVESLTQSNETIVAEQGTSFFGASTIFLKSNSRFIGQPLWGSIGYTFPAALGSQIADKESRHLLFIGDGSLQLTVQELGLSIREKLNPICFIINNDGYTVEREIHGPTQSYNDIPMWNYSKLPETFGATEDRVVSKIVRTENEFVSVMKEAQADVNRMYWIELVLEKEDAPKLLKKMGKLFAEQNK					50^[5] ° C.	>24 h					4 (45° C.) % v/v	150 U/mg

The next lines start with results.

T-Optimum ([6]; Table 2)	T-Optimum ([6]; Table 1)	Molecule	Activity, 50° C. [1]	I50: Isobutanol concentration which causes loss of 50% activity ([2]; 50° C.)	T-Optimum [3]	Half-life, 50° C. [4]	Activity, 50° C. [5]	I50: Isobutanol concentration which causes loss of 50% activity ([2]; 40° C.)	Activity, 50° C. [7]	E50: Ethanol concentration which causes loss of 50% activity [8]	I50: Isobutanol concentration which causes loss of 50% activity ([2]; 45° C.)	Activity, 50° C. [9]
55 °C		KARI: Ketol-acid reductoisomerase KARI (EC 1.1.1.86), Meiothermus ruber, Seq ID 14 (protein, Ketolacid reductoisomerase (EC 1.1.1.86), Meiothermus ruber Protein sequence including C-terminal His-Tag) MKIYYDQDADIGFIKDKTVAILGFGSQGHAHALNLRDSGIKVVVGLRPGSRNEEKARKAGLEVLPVGEAVRRADVVMILLPDETQGAVYKAEVEPNLKEGAALAFAHGFNIHFGQIKPRRDLDVWMVAPKGPGHLVRSEYEKGSGVPSLVAVYQDASGSAFPTALAYAKANGGTRAGTIATTFKDETETDLFGEQTVLCGGLTQLIAAGFETLVEAGYPPEMAYFECLHEVKLIVDLIYESGFAGMRYSISNTAEYGDYTRGPMVINREETKARMREVLRQIQQGEFAREWMLENVVGQPTLNANRNYWKDHPIEQVGPKLRAMMPFLKSRFTKEEVGSSGRPVLGSSHHHHHH				34 h	0.7 U/mg	8 (40° C.) % v/v				
70 °C	70 50 °C	GDH: Glucose dehydrogenase GDH (EC 1.1.1.47), Sulfolobus solfataricus, NP 344316.1, Seq ID 02 (protein, Glucose dehydrogenase (EC 1.1.1.47), Sulfolobus solfataricus Protein sequence including C-terminal His-Tag) MKAIIVKPPNAGVQVKDVDEKKLDSYGKIKIRTIYNGICGTDREIVNGKLTLSTLPKGKDFLVLGHEAIGVVEESYHGFSQGDLVMPVNRRGCGICRNCLVGRPDFCETGEFGEAGIHKMDGFMREWWYDDPKYLVKIPKSIEDIGILAQPLADIEKSIEEILEVQKRVPVWTCDDGTLNCRKVLVVGTGPIGVLFTLLFRTYGLEVWMANRREPTEVEQTVIEETKTNYYNSSNGYDKLKDSVGKFDVIIDATGADVNILGNVIPLLGRNGVLGLFGFSTSGSVPLDYKTLQEIVHTNKTIIGLVNGQKPHFQQAVVHLASWKTLYPKAAKMLITKTVSINDEKELLKVLREKEHGEIKIRILWESGRPVLGSSHHHHHH							15 U/mg	30 (45° C.) % v/v	9 (45° C.) % v/v	
